This note sets out measurements from patent publication US20060008891A1, “Cathepsin G-related peptides as modulators of formylpeptide receptors (FPR)” (The Government of USA as repersented by the Secretary, …, priority 2004, published 2006).

For data set [1], the target named is epitope-tagged human FPR stably expressed on rat basophilic leukemia (RBL) cells (ETFR cells) (human) (UniProt P21462). Description: displacement of 3 nM ^3[H]-fMLF from ETFR cells, filter binding.
Data set [2] addresses human formylpeptide receptor (FPR), native or wild type, on cells (human) (UniProt P21462). Description: displacement of 3 nM ^3[H]-fMLF from human monocytes, filter binding.
In data set [3] the test system is PKCδ. Description: PKCδ translocation in ETFR cells. It is filed as cell-based, rat. The settings on record: 100 nM fMLF, 10 μg/ml CaG or PMA 500 nM, 37° C. 10 min. As for the experimental part: ETFR cells were seeded on coverslips and cultured overnight in DMEM containing 1% FCS at 37° C. After further culture in FCS-free DMEM for 3 h, cells were treated with stimulants for indicated time periods at 37° C. and were then fixed in 4% paraformaldehyde for 5 min at room temperature. […] The rabbit anti-PKCα/β, δ, and ξ, antibodies (1:1000 in DPBS) were applied separately for 1 h at room temperature. After three rinses with DPBS, the cells were stained with FITC-labeled goat anti-rabbit secondary antibody (PharMingen, 1:1000 in DPBS) for 1 h at room temperature. The coverslips were mounted with an anti-fade, water-based mounting medium with Propidium Iodide (PI) (Vector Lab, Burlingamem, Calif.) and analyzed under a laser scanning confocal fluorescence microscope (Zeiss LSM510 NLO Meta, Jena, Germany).

For data set [4], the system named is parental RBL cells. Description: Chemotaxis assay, parental RBL cells. The settings on record: parental RBL cells without FPR. It is filed as cell-based, rat. As for the experimental part:
Human PBMC were isolated from leukopacks obtained through the courtesy of Transfusion Medicine Department, National Institutes of Health Clinical Center (Bethesda, Md.) by Ficoll-Hypaque density gradient centrifugation. Monocytes were purified from human PBMC by Percoll gradient to yield>90% pure preparations. […] H. Ali and R. Snyderman, Duke University (Durham, N.C.) and maintained in the presence of 0.8 mg/ml geneticin (G418, Life Technologies, Rockville, Md.) in DMEM supplemented with 10% FCS. B. Chemotaxis assay Migration of phagocytes and ETFR cells was assessed using a 48-well microchemotaxis chamber (Neuroprobe, Cabin John, Md.) as previously described (Hu et al. (2001) J Leukoc Biol 70 15512). Briefly, different concentrations of stimulants were placed in the wells of the lower compartment of the chamber, and 50 μl cells (1.5×10^6 cells/ml for monocyte and neutrophil, 1×10^6 ETFR cells/ml) were added to the wells of the upper compartment. The lower and upper compartments were separated by either a 5-μm (for monocyte) or a 10-μm pore size, collagen-coated (for ETFR cells) polycarbonate filter (Osmonics, Livermore, Calif.). After incubation at 37° C. in humidified air with 5% CO2 (60 min for neutrophils, 90 min for monocytes, 4.5 h for ETFR cells), the filter was removed and stained, and the cells migrating across the filter were counted with light microscopy. […]

In data set [5] the test system is ERK1/2. Description: Phosphorylation of ERK1/2 in ETFR cells (Western blot). The settings on record: ETFR cells; fMLF at 100 nM. It is filed as cell-based, rat. As to the method: ETFR cells were plated in Petri dishes and cultured in DMEM at 37° C. in humidified 5% CO2 atmosphere for 48 h. After further culture in serum-free DMEM overnight, the cells were treated with stimulants for indicated time periods. The reaction was stopped by adding 1 ml ice-cold PBS, and the cells were lysed in 1×SDS lysis buffer (62.5 mM Tris-HCl, 2% w/v SDS, 10% glycerol, 50 mM DTT, pH 6.8) and harvested into tubes for sonication. Proteins (50 μg for each sample) were resolved by SDS-PAGE and transferred onto nitrocellulose membranes (Bio-Rad, Hercules, Calif.). The membranes were blocked for 2 h at room temperature in 3% non-fat milk prepared in Tris-buffered saline-T (10 mM Tris-HCl, pH 7.5, 150 mM NaCl, 0.1% Tween 20) and probed with anti-p-ERK1/2, p-p38 MAPK, or p-Akt (1:1000) at room temperature for 1-2 h or at 4° C. overnight. The membranes were then washed and incubated with horseradish peroxidase-conjugated secondary antibodies diluted in Tris-buffered saline-T for 1 h at room temperature. The immune complexes on the membranes were visualized using ECL reagents. Total ERK1/2, p38 MAPK, and Akt were visualized by stripping the same membrane and probing with antibodies against total ERK1/2, p38 MAPK, and Akt.

For data set [6], the system named is monocytes. Description: Chemotaxis assay, monocytes. The format is cell-based, human. The settings on record: pre-incubation fMLF 100 nM or MMK-1 5 μM, 37° C. 30 min, washing; CaG 10 μg/ml. As for the experimental part: Human PBMC were isolated from leukopacks obtained through the courtesy of Transfusion Medicine Department, National Institutes of Health Clinical Center (Bethesda, Md.) by Ficoll-Hypaque density gradient centrifugation. Monocytes were purified from human PBMC by Percoll gradient to yield>90% pure preparations. […] H. Ali and R. Snyderman, Duke University (Durham, N.C.) and maintained in the presence of 0.8 mg/ml geneticin (G418, Life Technologies, Rockville, Md.) in DMEM supplemented with 10% FCS. B. Chemotaxis assay Migration of phagocytes and ETFR cells was assessed using a 48-well microchemotaxis chamber (Neuroprobe, Cabin John, Md.) as previously described (Hu et al. (2001) J Leukoc Biol 70 15512). Briefly, different concentrations of stimulants were placed in the wells of the lower compartment of the chamber, and 50 μl cells (1.5×10^6 cells/ml for monocyte and neutrophil, 1×10^6 ETFR cells/ml) were added to the wells of the upper compartment. The lower and upper compartments were separated by either a 5-μm (for monocyte) or a 10-μm pore size, collagen-coated (for ETFR cells) polycarbonate filter (Osmonics, Livermore, Calif.). After incubation at 37° C. in humidified air with 5% CO2 (60 min for neutrophils, 90 min for monocytes, 4.5 h for ETFR cells), the filter was removed and stained, and the cells migrating across the filter were counted with light microscopy. The results are presented as the mean number of cells (±SD) in three high power fields (HPFs). […] After thorough washing with cold medium (RPMI 1640, 1% BSA), the cells were resuspended and assayed. To measure the effect of various signaling inhibitors, unless otherwise indicated, the cells were pre-incubated at 37° C. for 60 min with the inhibitors, and were then added to the upper wells of the chemotaxis chamber.

The subject of data set [7] is PKC isozymes. Description: PKC translocation in parental RBL cells. The format is cell-based, rat. The settings on record: 100 nM fMLF, 10 μg/ml CaG or PMA 500 nM, 37° C. 10 min.
For data set [8], the system named is PKCα/β. Description: PKCα/β translocation in ETFR cells. It is filed as cell-based, rat. The following applies: 100 nM fMLF, 10 μg/ml CaG or PMA 500 nM, 37° C. 10 min. As to the method:
(§1) ETFR cells were seeded on coverslips and cultured overnight in DMEM containing 1% FCS at 37° C. After further culture in FCS-free DMEM for 3 h, cells were treated with stimulants for indicated time periods at 37° C. and were then fixed in 4% paraformaldehyde for 5 min at room temperature. The cells were permeabilized with 0.2% Tween 20 for 30 min at 4° C. and the reaction was blocked with 5% goat normal serum for 15 min at room temperature. The rabbit anti-PKCα/β, δ, and ξ, antibodies (1:1000 in DPBS) were applied separately for 1 h at room temperature. After three rinses with DPBS, the cells were stained with FITC-labeled goat anti-rabbit secondary antibody (PharMingen, 1:1000 in DPBS) for 1 h at room temperature. The coverslips were mounted with an anti-fade, water-based mounting medium with Propidium Iodide (PI) (Vector Lab, Burlingamem, Calif.) and analyzed under a laser scanning confocal fluorescence microscope (Zeiss LSM510 NLO Meta, Jena, Germany). Excitation wavelengths 488 (for FITC) and 568 (for PI) nm were used to generate fluorescence emission in green and red, respectively.

The test system of data set [9] is PKCζ. Description: PKCζ translocation in ETFR cells (confocal microscopy). The settings on record: 100 nM fMLF, 10 μg/ml CaG or PMA 500 nM, 37° C. 10 min. It is filed as cell-based, rat. As for the experimental part: as §1
For data set [10], the target named is T1, human formylpeptide receptor (FPR), native or wild type, on cells, P21462.
T1 chain: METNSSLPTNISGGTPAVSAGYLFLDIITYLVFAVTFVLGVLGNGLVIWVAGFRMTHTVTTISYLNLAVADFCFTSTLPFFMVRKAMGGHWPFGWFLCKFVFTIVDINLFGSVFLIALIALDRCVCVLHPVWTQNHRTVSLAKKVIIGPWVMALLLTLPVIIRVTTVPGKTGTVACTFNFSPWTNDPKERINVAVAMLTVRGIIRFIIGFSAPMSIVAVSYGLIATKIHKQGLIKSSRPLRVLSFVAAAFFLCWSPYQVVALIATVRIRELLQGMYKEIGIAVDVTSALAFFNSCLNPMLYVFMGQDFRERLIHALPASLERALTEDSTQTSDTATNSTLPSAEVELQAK

The target of data set [11] is T2, epitope-tagged human FPR stably expressed on rat basophilic leukemia (RBL) cells (ETFR cells), P21462.
T2 chain: T1 chain

Data set [12] concerns the target T3, epitope-tagged human FPR stably expressed on rat basophilic leukemia (RBL) cells (ETFR cells) (human, UniProt P21462 1-350).
T3 construct: whole, on cells; also called RBL cells transfected with FPR; not shown: neither its identity nor its position on FPR is stated
T3 sequence (looked up): T1 chain
Description: binding of ^125I-CaG (25 nM) to ETFR cells with increasing unlabeled ligand, analysed with the LIGAND program.

The target of data set [13] is T3, epitope-tagged human FPR stably …. Description: displacement of 3 nM ^3[H]-fMLF from ETFR cells by unlabeled CaG, filter binding.
Description: (§2) The cells were then filtered onto Whatman paper discs, which were air-dried and measured for Remission.
Data set [14] has as its target T4, human formylpeptide receptor (FPR), native or wild type, on cells (human, UniProt P21462 1-350).
T4 construct: whole, on cells; Used for assays on human monocytes and neutrophils (endogenous FPR) and on HEK293 cells transfected with wild type FPR
T4 sequence (looked up): T1 chain
Description: displacement of 3 nM ^3[H]-fMLF from human monocytes by unlabeled CaG, filter binding.
Description: as §2

For the molecule “synthetic N-formyl peptide fMLF (formyl-methionyl-leucyl-phenylalanine)”, the IC50 in [1] and in data set [2] was 3 nM throughout.

Consider `CSCC[C@H](NC=O)C(=O)N[C@@H](CC(C)C)C(=O)N[C@@H](Cc1ccccc1)C(=O)O` [fMLF, formyl-methionyl-leucyl-phyenyalanine], for which the “translocation of PKCδ” value in [3] was “did not induce translocation of PKCδ”. Further, the “migration of parental RBL cells” value in data set [4] is given as “Neither CaG nor fMLF induced migration of parental RBL cells”. Moreover, the “time of maximal effect on p-ERK” value in data set [5] is on record as 1 min. Further, in [6], the “attenuation of monocyte chemotaxis to CaG after pre-incubation with agonist” value was “attenuated monocyte response to CaG”. Further, in data set [7], the “PKC translocation in parental RBL cells” value was “Neither CaG nor fMLF stimulated PKC translocation in parental RBL cells”. In data set [8], the “translocation of PKCα/β” value is “promoted the translocation of not only PKCξ, but also PKCα/β”. Further, the “translocation of PKCζ” value in data set [9] is reported as “promoted the translocation of not only PKCξ, but also PKCα/β”.

B1: Cathepsin G (CaG), purified from neutrophil granules (protein)
chain: IIGGRESRPHSRPYMAYLQIQSPAGQSRCGGFLVREDFVLTAAHCWGSNINVTLGAHNIQRRENTQQHITARRAIRHPQYNQRTIQNDIMLLQLSRRVRRNRNVNPVALPRAQEGLRPGTLCTVAGWGRVSMRRGTDTLREVQLRVQRDRQCLRIFGSYDPRRQICVGDRRERKAAFKGDSGGPLLCNNVAHGIVSYGKSSGVPPEVFTRVSSFLPWIRTTMRS
In the case of B1, the “monocyte migration (chemotaxis), concentration of maximal activity” value in data set [10] is given as “CaG dose-dependently induced monocyte migration (FIG. 1A), which reached maximal activity at a concentration of 5 µg/ml of the protein (200 nM)”. Further, the “phosphorylation of ERK1/2, p38 MAPK and Akt (Western blot)” value in data set [11] was “CaG also positively and rapidly (within 1-5 min) activated ERK1/2 (FIG. 5 A), p38 MAPK (FIG. 5 C), and Akt (FIG. 5 D)”.

B2: Cathepsin G (CaG), purified from neutrophil granules (enzyme)
chain: B1 chain
modifications: iodinated (^125I, chloramine-T method) in the direct binding assay only
Turning to B2, the Kd in [12] was determined as 85 nM. Moreover, the IC50 in [13] and in data set [14] was 100 nM throughout.
